Five molecules from patent US20060270591A1 (published 2006) can be followed below.

First the molecules themselves.
B1: AR-N (aa 36-553), in vitro translated (receptor)
chain: NPGPRHPEAASAAPPGASLLLLQQQQQQQQQQQQQQQQQQQQQETSPRQQQQQQGEDGSPQAHRRGPTGYLVLDEEQQPSQPQSALECHPERGCVPEPGAAVAASKGLPQQLPAPPDEDDSAAPSTLSLLGPTFPGLSSCSADLKDILSEASTMQLLQQQQQEAVSEGSSSGRAREASGAPTSSKDNYLGGTSTISDNAKELCKAVSVSMGLGVEALEHLSPGEQLRGDCMYAPLLGVPPAVRPTPCAPLAECKGSLLDDSAGKSTEDTAEYSPFKGGYTKGLEGESLGCSGSAAAGSSGTLELPSTLSLYKSGALDEAAAYQSRDYYNFPLALAGPPPPPPPPHPHARIKLENPLDYGSAWAAAAAQCRYGDLASLHGAGAAGPGSGSPSAAASSSWHTLFTAEEGQLYGPCGGGGGGGGGGGGGGGGGGGGGGGGEAGAVAPYGYTRPPQGLAGQESDFTAPDVWYPGGMVSRVPYPSPTCVKSEMGPWMDSYSGPYGDMRLETARDHVLPIDYYF
modifications: [35S]-methionine-labeled
notes: also called AR N-terminal

Experiment [1] has as its target T1, GST-ARA267N2 (ARA267 aa 1-984) (human, UniProt Q96L73 280-1253).
T1 sequence: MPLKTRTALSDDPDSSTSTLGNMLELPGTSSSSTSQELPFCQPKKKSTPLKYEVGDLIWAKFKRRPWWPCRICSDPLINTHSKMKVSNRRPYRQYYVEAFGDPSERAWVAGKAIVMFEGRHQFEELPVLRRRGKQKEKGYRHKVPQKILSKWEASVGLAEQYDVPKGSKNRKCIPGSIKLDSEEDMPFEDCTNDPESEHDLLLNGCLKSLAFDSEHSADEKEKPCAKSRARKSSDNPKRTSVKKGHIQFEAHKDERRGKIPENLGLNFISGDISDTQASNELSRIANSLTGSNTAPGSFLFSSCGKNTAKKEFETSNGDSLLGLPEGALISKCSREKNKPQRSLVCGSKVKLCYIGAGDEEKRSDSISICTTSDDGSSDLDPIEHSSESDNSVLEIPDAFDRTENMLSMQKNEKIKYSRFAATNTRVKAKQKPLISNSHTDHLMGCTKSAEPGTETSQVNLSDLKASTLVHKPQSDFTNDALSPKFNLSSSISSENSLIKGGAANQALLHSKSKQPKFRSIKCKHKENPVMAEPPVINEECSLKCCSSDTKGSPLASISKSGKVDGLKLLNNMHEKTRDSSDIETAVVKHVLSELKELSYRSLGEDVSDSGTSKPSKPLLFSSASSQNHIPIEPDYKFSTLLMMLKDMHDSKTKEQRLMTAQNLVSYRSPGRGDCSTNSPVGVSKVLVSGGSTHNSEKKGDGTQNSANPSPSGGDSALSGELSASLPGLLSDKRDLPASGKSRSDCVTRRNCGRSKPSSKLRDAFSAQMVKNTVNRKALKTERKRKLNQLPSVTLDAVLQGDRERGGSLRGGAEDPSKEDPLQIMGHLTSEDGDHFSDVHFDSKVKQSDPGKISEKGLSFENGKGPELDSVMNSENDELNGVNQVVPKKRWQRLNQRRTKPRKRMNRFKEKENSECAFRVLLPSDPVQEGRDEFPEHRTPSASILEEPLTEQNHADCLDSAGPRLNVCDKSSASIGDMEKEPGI
The experiment is described as follows: GST pull-down.
Description: (§1) After several washes with NETN buffer [20 mM Tris/pH 8.0, 100 mM NaCl, 6 mM MgCL₂, 1.0 mM EDTA, 1.0 mM DTT, 0.5% (vol/vol) Nonidet P-40, 1 mM PMSF, and 8% glycerol], the bound proteins were separated on SDS-PAGE gel and visualized by PhosphorImager (Molecular Dynamics).
(§2) To confirm the interaction between ARA267 and AR that was shown in the yeast two-hybrid system, GST pull-down assay was applied to confirm and further map the interaction domains between ARA267 and AR.

The target in experiment [2] is T2, GST-ARA267C (ARA267 aa 1716-2427) (human, UniProt Q96L73 1985-2696).
T2 sequence: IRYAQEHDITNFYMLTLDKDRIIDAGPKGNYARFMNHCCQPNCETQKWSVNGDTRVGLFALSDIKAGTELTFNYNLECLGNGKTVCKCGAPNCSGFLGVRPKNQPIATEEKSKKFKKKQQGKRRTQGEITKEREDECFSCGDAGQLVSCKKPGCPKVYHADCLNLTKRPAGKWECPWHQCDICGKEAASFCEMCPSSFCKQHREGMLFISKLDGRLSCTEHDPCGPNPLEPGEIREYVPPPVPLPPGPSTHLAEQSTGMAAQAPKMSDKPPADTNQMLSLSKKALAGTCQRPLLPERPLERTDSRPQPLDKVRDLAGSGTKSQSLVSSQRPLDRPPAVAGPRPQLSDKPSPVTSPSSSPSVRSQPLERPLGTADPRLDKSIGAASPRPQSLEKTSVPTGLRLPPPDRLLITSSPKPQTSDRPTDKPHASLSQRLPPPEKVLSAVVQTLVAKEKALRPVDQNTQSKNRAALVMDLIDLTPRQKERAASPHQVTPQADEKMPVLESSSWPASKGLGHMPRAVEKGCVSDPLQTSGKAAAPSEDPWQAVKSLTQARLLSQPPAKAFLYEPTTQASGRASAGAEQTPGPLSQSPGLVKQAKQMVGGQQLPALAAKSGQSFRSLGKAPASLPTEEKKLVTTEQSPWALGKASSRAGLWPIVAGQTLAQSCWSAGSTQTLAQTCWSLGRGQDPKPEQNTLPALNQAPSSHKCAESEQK
The experiment is described as follows: GST pull-down.
Description: as §1, §2

Experiment [3] addresses B1. The experiment is described as follows: GST pull-down.
Description: as §1, §2
For experiment [4], the target named is T3, GAL4 DBD fused with C-terminal fragment (aa 595-918) of mARt877s (human, UniProt P04386 1-147 (Saccharomyces cerevisiae entry)).
T3 construct: range 1-147; Yeast two-hybrid bait; the text also writes t877a in places; also called pAS2-mtARt877s; mtARt877s
Description: yeast two-hybrid screen of prostate cDNA library.

The target of experiment [5] is T4, GAL4 DBD fused with C-terminal fragment (aa 595-918) of wild-type AR (human, UniProt P04386 1-147 (Saccharomyces cerevisiae entry)).
T4 construct: range 1-147; also called pAS2-AR; pAS2-wtAR
Description: yeast two-hybrid.

Experiment [6] deals with T5, androgen receptor (AR), full-length, human (human, UniProt P10275 1-920).
T5 sequence: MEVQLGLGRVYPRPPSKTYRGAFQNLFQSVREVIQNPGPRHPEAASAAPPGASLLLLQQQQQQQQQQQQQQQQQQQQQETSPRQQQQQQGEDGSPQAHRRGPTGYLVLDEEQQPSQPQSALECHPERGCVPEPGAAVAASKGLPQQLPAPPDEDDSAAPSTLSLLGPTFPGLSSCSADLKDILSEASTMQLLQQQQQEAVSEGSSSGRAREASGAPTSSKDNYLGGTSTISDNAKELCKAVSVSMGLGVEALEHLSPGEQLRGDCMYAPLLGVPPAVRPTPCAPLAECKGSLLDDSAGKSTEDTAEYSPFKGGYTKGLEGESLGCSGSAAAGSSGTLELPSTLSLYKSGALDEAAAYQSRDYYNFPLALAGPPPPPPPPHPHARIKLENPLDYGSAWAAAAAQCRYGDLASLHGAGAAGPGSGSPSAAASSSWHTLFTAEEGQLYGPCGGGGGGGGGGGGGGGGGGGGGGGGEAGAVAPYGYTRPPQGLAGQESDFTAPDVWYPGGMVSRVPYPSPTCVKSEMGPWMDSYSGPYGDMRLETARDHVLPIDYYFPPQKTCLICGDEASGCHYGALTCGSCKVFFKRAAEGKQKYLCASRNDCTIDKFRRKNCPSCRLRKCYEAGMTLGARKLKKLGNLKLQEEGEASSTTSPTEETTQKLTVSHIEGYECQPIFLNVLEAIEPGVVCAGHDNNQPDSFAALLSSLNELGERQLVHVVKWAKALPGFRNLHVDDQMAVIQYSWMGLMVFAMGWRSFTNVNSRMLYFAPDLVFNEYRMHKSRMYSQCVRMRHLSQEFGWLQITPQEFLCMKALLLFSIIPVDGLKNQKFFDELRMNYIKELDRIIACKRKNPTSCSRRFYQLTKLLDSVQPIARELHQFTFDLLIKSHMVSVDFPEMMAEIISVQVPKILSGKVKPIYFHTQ
Description: cell-based or functional assay.

Experiment [7] has as its target T6, GAL4 empty vector (GAL4 DBD alone) (UniProt P04386 1-147).
T6 construct: range 1-147; Control
Description: mammalian two-hybrid, DU145, CAT.

On to B1, for which the binding result in experiment [1] and in experiment [2] was “no binding” each time.

B2: GST-ARA267N1 (ARA267 aa 1-382) (other, not shown: a dimerising Fc or GST)
chain: MPLKTRTALSDDPDSSTSTLGNMLELPGTSSSSTSQELPFCQPKKKSTPLKYEVGDLIWAKFKRRPWWPCRICSDPLINTHSKMKVSNRRPYRQYYVEAFGDPSERAWVAGKAIVMFEGRHQFEELPVLRRRGKQKEKGYRHKVPQKILSKWEASVGLAEQYDVPKGSKNRKCIPGSIKLDSEEDMPFEDCTNDPESEHDLLLNGCLKSLAFDSEHSADEKEKPCAKSRARKSSDNPKRTSVKKGHIQFEAHKDERRGKIPENLGLNFISGDISDTQASNELSRIANSLTGSNTAPGSFLFSSCGKNTAKKEFETSNGDSLLGLPEGALISKCSREKNKPQRSLVCGSKVKLCYIGAGDEEKRSDSISICTTSDDGSSDLDP
In the case of B2, in experiment [3], the binding result is reported as “no binding”.

B3: GAL4 AD fused C-terminal region of ARA54 (C'-ARA54, amino acids 361-474) (other)
chain: ANFNQSGNIADSSLSFTFTNSSNGPNLITTQTNSQALSQPIASSNVHDNFMNNEITASKIDDGNNSKPLSPGWTDQTAYNAFGITTGMFNTTTMDDVYNYLFDDEDTPPNPKKERNEYLQADEANKRLLDQRYGKRVIQKALEEMESKEWLEKNSKSCPCCGTPIEKLDGCNKMTCTGCMQYFCWICMGSLSRANPYKHFNDPGSPCFNRLFYAVDVDDDIWEDEVED
notes: range 768-881; Clone from the prostate cDNA library; also called pACT2-C'-ARA54
Regarding B3, the binding result in experiment [4] and in experiment [5] was “binds” each time.

B4: ARA70N (aa 1-401) with wild-type FXXLF, expressed from pSG5 (other)
chain: MNTFQDQSGSSSNREPLLRCSDARRDLELAIGGVLRAEQQIKDNLREVKAQIHSCISRHLECLRSREVWLYEQVDLIYQLKEETLQQQAQQLYSLLGQFNCLTHQLECTQNKDLANQVSVCLERLGSLTLKPEDSTVLLFEADTITLRQTITTFGSLKTIQIPEHLMAHASSANIGPFLEKRGCISMPEQKSASGIVAVPFSEWLLGSKPASGYQAPYIPSTDPQDWLTQKQTLENSQTSSRACNFFNNVGGNLKGLENWLLKSEKSSYQKCNSHSTTSSFSIEMEKVGDQELPDQDEMDLSDWLVTPQESHKLRKPENGSRETSEKFKLLFQSYNVNDWLVKTDSCTNCQGNQPKGVEIENLGNLKCLNDHLEAKKPLSTPSMVTEDWLVQNHQDPCKVE
Regarding B4, in experiment [6], the “AR transactivation (MMTV-LUC, COS-1, 10 nM T)” value was determined as 310 fold.

B5: VP16 AD fused full-length ARA55 (other)
chain: MPRSGAPKERPAEPLTPPPSYGHQPTGQSGESSGASGDKDHLYSTVCKPRSPKPAAPAAPPFSSSSGVLGTGLCELDRLLQELNATQFNITDEIMSQFPSSKVASGEQKEDQSEDKKRPSLPSSPSPGLPKASATSATLELDRLMASLPDFRVQNHLPASGPTQPPVVSSTNEGSPSPPEPTAKGSLDTMLGLLQSDLSRRGVPTQAKGLCGSCNKPIAGQVVTALGRAWHPEHFVCGGCSTALGGSSFFEKDGAPFCPECYFERFSPRCGFCNQPIRHKMVTALGTHWHPEHFCCVSCGEPFGDEGFHEREGRPYCRRDFLQLFAPRCQGCQGPILDNYISALSLLWHPDCFVCRECFAPFSGGSFFEHEGRPLCENHFHARRGSLCPTCGLPVTGRCVSALGRRFHPDHFACTFCLRPLTKGSFQERAGKPYCQPCFLKLFG
notes: also called VP16-ARA55
As to B5, the binding result in experiment [7] was “no binding”.
